Data reported in patent EP2975062B1.

Target: c-mpl receptor (TPO receptor), expressed from c-mpl-pcDNA3.1 in NIH-3T3 cells
Experiment: cell-based or functional assay

The relative fluorescence ratio (firefly/Renilla luciferase, c-fos-pGL3 reporter, NIH-3T3 transfected with c-mpl-pcDNA3.1): 1.65
Substance: recombinant human TPO (rhTPO) (from UniProt P40225 22-353) (ligand)
